{
  "source": "patent US20160319321",
  "key": {"[1]": {"target": "T1, DVKEGQPLYDDDDK-[Arg34]GLP-1(9-37)", "T1 chain": "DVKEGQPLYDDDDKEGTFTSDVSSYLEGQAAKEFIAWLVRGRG"}, "[2]": {"target": "T2, DVKEGQPLYDEGDR-[Arg34]GLP-1(9-37)", "T2 chain": "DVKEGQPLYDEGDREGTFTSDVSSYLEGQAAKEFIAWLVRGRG"}, "[3]": {"target": "T3, DVKPEQPLYDEGDR-[Arg34]GLP-1(9-37)", "T3 chain": "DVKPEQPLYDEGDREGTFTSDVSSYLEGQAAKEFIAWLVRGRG"}, "[4]": {"target": "T4, DVKPGEPLYDEGDR-[Arg34]GLP-1(9-37)", "T4 chain": "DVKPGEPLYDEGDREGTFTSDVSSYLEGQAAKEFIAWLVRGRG"}, "[5]": {"target": "T5, Lys(Dnp)-AEGDR-HAEGT-Lys(Abz)amide", "T5 chain": "XAEGDRHAEGTX"}, "[6]": {"target": "T6, Lys(Dnp)-DAGDR-HAEGT-Lys(Abz)amide", "T6 chain": "KDAGDRHAEGTK"}, "[7]": {"target": "T7, Lys(Dnp)-DDGDR-QGTFT-Lys(Abz)amide", "T7 chain": "KDDGDRQGTFTK"}, "[8]": {"target": "T8, Lys(Dnp)-DEGDR-EGTFT-Lys(Abz)amide", "T8 chain": "KDEGDREGTFTK"}, "[9]": {"target": "T9, Lys(Dnp)-DEGDR-HGEGT-Lys(Abz)amide", "T9 chain": "KDEGDRHGEGTK"}, "[10]": {"target": "T10, Lys(Dnp)-DEGDR-QGTFT-Lys(Abz)amide", "T10 chain": "KDEGDRQGTFTK"}, "[11]": {"target": "T11, Lys(Dnp)-DHGDR-EGTFT-Lys(Abz)amide", "T11 chain": "KDHGDREGTFTK"}, "[12]": {"target": "T12, Lys(Dnp)-DLGDR-HAEGT-Lys(Abz)amide", "T12 chain": "KDLGDRHAEGTK"}, "[13]": {"target": "T13, Lys(Dnp)-DLGDR-HGEGT-Lys(Abz)amide", "T13 chain": "KDLGDRHGEGTK"}, "[14]": {"target": "T14, Lys(Dnp)-DLGDR-HGTFT-Lys(Abz)amide", "T14 chain": "KDLGDRHGTFTK"}, "[15]": {"target": "T15, Lys(Dnp)-DQGDR-HAEGT-Lys(Abz)amide", "T15 chain": "KDQGDRHAEGTK"}, "[16]": {"target": "T16, Lys(Dnp)-DQGDR-HGEGT-Lys(Abz)amide", "T16 chain": "KDQGDRHGEGTK"}, "[17]": {"target": "T17, Lys(Dnp)-DSGDR-EGTFT-Lys(Abz)amide", "T17 chain": "KDSGDREGTFTK"}, "[18]": {"target": "T18, Lys(Dnp)-DSGDR-HGTFT-Lys(Abz)amide", "T18 chain": "KDSGDRHGTFTK"}, "[19]": {"target": "T19, Lys(Dnp)-DSGDR-HSQGT-Lys(Abz)amide", "T19 chain": "KDSGDRHSQGTK"}, "[20]": {"target": "T20, Lys(Dnp)-EDGDR-HAEGT-Lys(Abz)amide", "T20 chain": "KEDGDRHAEGTK"}, "[21]": {"target": "T21, Lys(Dnp)-EEGDR-HAEGT-Lys(Abz)amide", "T21 chain": "KEEGDRHAEGTK"}, "[22]": {"target": "T22, Lys(Dnp)-EFGDR-HAEGT-Lys(Abz)amide", "T22 chain": "KEFGDRHAEGTK"}, "[23]": {"target": "T23, Lys(Dnp)-EGGDR-HAEGT-Lys(Abz)amide", "T23 chain": "KEGGDRHAEGTK"}, "[24]": {"target": "T24, Lys(Dnp)-EQGDR-EGTFT-Lys(Abz)amide", "T24 chain": "KEQGDREGTFTK"}, "[25]": {"target": "T25, Lys(Dnp)-ESGDR-HAEGT-Lys(Abz)amide", "T25 chain": "KESGDRHAEGTK"}, "[26]": {"target": "T26, Lys(Dnp)-EWGDR-HAEGT-Lys(Abz)amide", "T26 chain": "KEWGDRHAEGTK"}, "[27]": {"target": "T27, Lys(Dnp)-EYGDR-EGTFT-Lys(Abz)amide", "T27 chain": "KEYGDREGTFTK"}, "[28]": {"target": "T28, Lys(Dnp)-EYGDR-HAEGT-Lys(Abz)amide", "T28 chain": "KEYGDRHAEGTK"}, "[29]": {"target": "T29, Lys(Dnp)-EYGDR-HGEGT-Lys(Abz)amide", "T29 chain": "KEYGDRHGEGTK"}, "[30]": {"target": "T30, Lys(Dnp)-FDEGDR-HAEGT-Lys(Abz)amide", "T30 chain": "KFDEGDRHAEGTK"}, "[31]": {"target": "T31, Lys(Dnp)-IDEGDR-HAEGT-Lys(Abz)amide", "T31 chain": "KIDEGDRHAEGTK"}, "[32]": {"target": "T32, Lys(Dnp)-IMGDRHAEGT-Lys(Abz)amide", "T32 chain": "XIMGDRHAEGTX"}, "[33]": {"target": "T33, Lys(Dnp)-INDDRHAEGT-Lys(Abz)amide", "T33 chain": "XINDDRHAEGTX"}, "[34]": {"target": "T34, Lys(Dnp)-MDEGDR-HAEGT-Lys(Abz)amide", "T34 chain": "KMDEGDRHAEGTK"}, "[35]": {"target": "T35, Lys(Dnp)-PDEGDR-HAEGT-Lys(Abz)amide", "T35 chain": "KPDEGDRHAEGTK"}, "[36]": {"target": "T36, Lys(Dnp)-QDEGDR-HAEGT-Lys(Abz)amide", "T36 chain": "KQDEGDRHAEGTK"}, "[37]": {"target": "T37, Lys(Dnp)-QEGDR-EGTFT-Lys(Abz)amide", "T37 chain": "KQEGDREGTFTK"}, "[38]": {"target": "T38, Lys(Dnp)-QEGDR-HGEGT-Lys(Abz)amide", "T38 chain": "KQEGDRHGEGTK"}, "[39]": {"target": "T39, Lys(Dnp)-SSGDRHAEGT-Lys(Abz)amide", "T39 chain": "KSSGDRHAEGTK"}, "[40]": {"target": "T40, Lys(Dnp)-VDEGDR-HAEGT-Lys(Abz)amide", "T40 chain": "KVDEGDRHAEGTK"}, "[41]": {"target": "T41, Lys(Dnp)-VEGDR-HAEGT-Lys(Abz)amide", "T41 chain": "KVEGDRHAEGTK"}, "[42]": {"target": "T42, Lys(Dnp)-WDEGDR-HAEGT-Lys(Abz)amide", "T42 chain": "KWDEGDRHAEGTK"}},
  "note": "Where “and” joins values, the source holds several entries; their conditions need not be identical. Equal entries are not always repeated.",
  "data": [
    {"protein": "bovine Enterokinase light chain variant (C112A, L134K, I135K) (protein) IVGGSDSREGAWPWVVALYFDDQQVCGASLVSRDWLVSAAHCVYGRNMEPSKWKAVLGLHMASNLTSPQIETRLIDQIVINPHYNKRRKNNDIAMMHLEMKVNYTDYIQPIALPEENQVFPPGRICSIAGWGAKKYQGSTADVLQEADVPLLSNEKCQQQMPEYNITENMVCAGYEAGGVDSCQGDSGGPLMCQENNRWLLAGVTSFGYQCALPNRPGVYARVPRFTEWIQSFLH", "values": [
      {"measurement": "Activity (%)", "setting": "[1]", "value": 178, "unit": "%"},
      {"measurement": "Activity (%)", "setting": "[2]", "value": 913, "unit": "%"},
      {"measurement": "Activity (%)", "setting": "[3]", "value": 803, "unit": "%"},
      {"measurement": "Activity (%)", "setting": "[4]", "value": 895, "unit": "%"},
      {"measurement": "Activity (%)", "setting": "[5]", "value": 382, "unit": "%"},
      {"measurement": "Activity (%)", "setting": "[6]", "value": 496, "unit": "%"},
      {"measurement": "Activity (%)", "setting": "[7]", "value": 338, "unit": "%"},
      {"measurement": "Activity (%)", "setting": "[8]", "value": 890, "unit": "%"},
      {"measurement": "Activity (%)", "setting": "[9]", "value": 736, "unit": "%"},
      {"measurement": "Activity (%)", "setting": "[10]", "value": 411, "unit": "%"},
      {"measurement": "Activity (%)", "setting": "[11]", "value": 398, "unit": "%"},
      {"measurement": "Activity (%)", "setting": "[12]", "value": "795% and 722%"},
      {"measurement": "Activity (%)", "setting": "[13]", "value": 438, "unit": "%"},
      {"measurement": "Activity (%)", "setting": "[14]", "value": 216, "unit": "%"},
      {"measurement": "Activity (%)", "setting": "[15]", "value": 770, "unit": "%"},
      {"measurement": "Activity (%)", "setting": "[16]", "value": 467, "unit": "%"},
      {"measurement": "Activity (%)", "setting": "[17]", "value": 342, "unit": "%"},
      {"measurement": "Activity (%)", "setting": "[18]", "value": 172, "unit": "%"},
      {"measurement": "Activity (%)", "setting": "[19]", "value": 200, "unit": "%"},
      {"measurement": "Activity (%)", "setting": "[20]", "value": 632, "unit": "%"},
      {"measurement": "Activity (%)", "setting": "[21]", "value": 988, "unit": "%"},
      {"measurement": "Activity (%)", "setting": "[22]", "value": 486, "unit": "%"},
      {"measurement": "Activity (%)", "setting": "[23]", "value": 586, "unit": "%"},
      {"measurement": "Activity (%)", "setting": "[24]", "value": 442, "unit": "%"},
      {"measurement": "Activity (%)", "setting": "[25]", "value": 557, "unit": "%"},
      {"measurement": "Activity (%)", "setting": "[26]", "value": 456, "unit": "%"},
      {"measurement": "Activity (%)", "setting": "[27]", "value": 353, "unit": "%"},
      {"measurement": "Activity (%)", "setting": "[28]", "value": 539, "unit": "%"},
      {"measurement": "Activity (%)", "setting": "[29]", "value": 338, "unit": "%"},
      {"measurement": "Activity (%)", "setting": "[30]", "value": 200, "unit": "%"},
      {"measurement": "Activity (%)", "setting": "[31]", "value": 283, "unit": "%"},
      {"measurement": "Activity (%)", "setting": "[32]", "value": 125, "unit": "%"},
      {"measurement": "Activity (%)", "setting": "[33]", "value": 126, "unit": "%"},
      {"measurement": "Activity (%)", "setting": "[34]", "value": 209, "unit": "%"},
      {"measurement": "Activity (%)", "setting": "[35]", "value": 194, "unit": "%"},
      {"measurement": "Activity (%)", "setting": "[36]", "value": 141, "unit": "%"},
      {"measurement": "Activity (%)", "setting": "[37]", "value": 411, "unit": "%"},
      {"measurement": "Activity (%)", "setting": "[38]", "value": 275, "unit": "%"},
      {"measurement": "Activity (%)", "setting": "[39]", "value": 191, "unit": "%"},
      {"measurement": "Activity (%)", "setting": "[40]", "value": 184, "unit": "%"},
      {"measurement": "Activity (%)", "setting": "[41]", "value": 388, "unit": "%"},
      {"measurement": "Activity (%)", "setting": "[42]", "value": 181, "unit": "%"}
    ]}
  ]
}
